Laboratory results published in patent US20090208440.
Residue numbers refer to the chain shown, from its start.

T1: substrate B
T1 chain: KKWLGRVPGGPV

T2: substrate A
T2 chain: LLWLGRVVGGPV

B1: variant a (protein)
chain: IVGGYNCEENSVPYQVSLNSGYHFCGGSLINEQWVVSAGHCYRPWDPSKSRIQVRLGEHNIEVLEGNEQFINAAKIIRHPQYDRKTLNNDIMLIKLSSRAVINARVSTISLPTAPPATGTKCLISGWGNVHPTSTASSGADYPDELQCLDAPVLSQAKCEASYPGKITSNMFCVGFLEGGKDSCQGDSGGPVVCNGQLQGVVSWGDGCAQKNKPGVYTKVYNYVKWIKNTIAANS
B2: variant e (protein)
chain: IVGGYNCEENSVPYQVSLNSGYHFCGGSLINEQWVVSAGHCYVNIMAAKSRIQVRLGEHNIEVLEGNEQFINAAKIIRHPQYDRKTLNNDIMLIKLSSRAVINARVSTISLPTAPPATGTKCLISGWGNTTARKTASSGADYPDELQCLDAPVLSQAKCEASYPGKITSNMFCVGFLEGGKDSCQGDSGGPVVCNGQLQGVVSWGDGCAQKNKPGVYTKVYNYVKWIKNTIAANS
B3: variant d (protein)
chain: B1 chain with R43K, P44A, W45V, D46V, P47G, S48T, V130R, H131T, T133I
B4: Variant 1 (protein)
chain: B1 chain with R43D, P44A, W45V, D46G, P47R, S48D, V130T, H131I, P132T, T133N
B5: variant c (protein)
chain: B2 chain with V43E, N44I, I45A, M46N, A47R, A48E, T130R, T131G, K134T
B6: variant b (protein)
chain: B1 chain with R43G, P44F, W45V, D46M, P47F, S48N, V130R, H131S, T133L, S134T
B7: variant f (protein)
chain: IVGGYNCEENSVPYQVSLNSGYHFCGGSLINEQWVVSAGHCYAAFNGDKSRIQVRLGEHNIEVLEGNEQFINAAKIIRHPQYDRKTLNNDIMLIKLSSRAVINARVSTISLPTAPPATGTKCLISGWGNRKDFWTASSGADYPDELQCLDAPVLSQAKCEASYPGKITSNMFCVGFLEGGKDSCQGDSGGPVVCNGQLQGVVSWGDGCAQKNKPGVYTKVYNYVKWIKNTIAANS
B8: Variant 2 (protein)
chain: B1 chain with R43N, P44G, W45R, P47L, S48E, H131R, P132G, S134W
B9: Variant 3 (protein)
chain: B7 chain with F45T
B10: variant x (protein)
chain: IVGGYNCEENSVPYQVSLNSGYHFCGGSLINEQWVVSAGHCYAAFNGKSRIQVRLGEHNIGVLEGNEQFINAAKIIRHPQYDWKTLNNDIMLIKLSSRAVINARVSTISLPTAPPATGTKCLISGWGNRKDFWTASSGADFPDELQCLDAPVLSQTKCEASYPGKITSNMFCVGFLEGGKDSCQGDSGGPVVRNGQLQGVVSWGDGCAQKNKPGVYTKVYNYVKWIKNTIAANS

What was measured:
[1] = molecular target: peptide with the desired target sequence of TNF-alpha
substrate B = molecular target: T1, substrate B
substrate A = molecular target: T2, substrate A
[2] = molecular target: proteins from human blood serum

Chain of human TNF-alpha (chain, as listed by the source): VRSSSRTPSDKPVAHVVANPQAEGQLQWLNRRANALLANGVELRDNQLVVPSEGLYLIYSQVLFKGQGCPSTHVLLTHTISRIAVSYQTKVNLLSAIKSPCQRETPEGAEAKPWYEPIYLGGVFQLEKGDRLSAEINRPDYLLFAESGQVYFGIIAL

Row | Protein | k with comp./k without comp. [1] | rate constants of proteolytic digestion (proportional to kcat/KM), relative to human trypsin I (substrate B) | other results
1 | B1 | 0.13 |  | 
2 | B2 | 0.374 |  | 
3 | B3 | 0.31 |  | 
4 | B4 |  | the specific activity of variants 1 and 2 is shifted (SEQ ID NOs: 2 and 3, respectively) towards substrate B | 
5 | B5 | 0.235 |  | 
6 | B6 | 0.187 |  | 
7 | B7 | 0.487 |  | 
8 | B8 |  | the specific activity of variants 1 and 2 is shifted (SEQ ID NOs: 2 and 3, respectively) towards substrate B | 
9 | B9 |  | serves as a negative control with similar activities as the human trypsin I | rate constants of proteolytic digestion (proportional to kcat/KM), relative to human trypsin I (substrate A): serves as a negative control with similar activities as the human trypsin I
10 | B10 |  |  | remaining intact protein as a function of time (proteolytic digestion) [2]: only trypsin shows activity on serum protein; remaining intact protein as a function of time (proteolytic digestion) (human TNF-alpha): the variants as well as human trypsin I digest human TNF-alpha
